Assay results: US20240209409A1 (AJINOMOTO, published 2024)
Where no end group is shown, it is not given here. [ ]: non-standard residue; d: D form. Phe(4-N3) = [N-]=[N+]=Nc1ccc(C[C@H](N)C(=O)O)cc1

Tests used:
Met = Met (UniProt P08581 25-1390, limits assumed); assay: cell-based or functional assay
EPOR = molecular target: T1, EPOR (UniProt P19235 25-508, limits assumed); assay: cell-based or functional assay
T1 sequence (looked up): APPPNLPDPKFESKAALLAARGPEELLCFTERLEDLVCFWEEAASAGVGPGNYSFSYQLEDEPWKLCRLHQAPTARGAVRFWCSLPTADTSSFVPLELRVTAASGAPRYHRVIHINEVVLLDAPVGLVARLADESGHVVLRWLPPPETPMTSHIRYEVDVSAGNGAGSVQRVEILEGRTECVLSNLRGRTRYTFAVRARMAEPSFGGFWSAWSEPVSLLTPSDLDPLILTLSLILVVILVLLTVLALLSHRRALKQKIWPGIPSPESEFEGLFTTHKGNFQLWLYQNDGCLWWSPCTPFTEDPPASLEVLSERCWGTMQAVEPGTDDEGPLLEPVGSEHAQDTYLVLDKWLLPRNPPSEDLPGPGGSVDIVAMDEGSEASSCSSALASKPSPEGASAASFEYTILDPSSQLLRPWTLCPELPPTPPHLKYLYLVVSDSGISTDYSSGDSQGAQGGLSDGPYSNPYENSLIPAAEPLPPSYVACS

Met, sequence (P08581 25-1390 limits assumed): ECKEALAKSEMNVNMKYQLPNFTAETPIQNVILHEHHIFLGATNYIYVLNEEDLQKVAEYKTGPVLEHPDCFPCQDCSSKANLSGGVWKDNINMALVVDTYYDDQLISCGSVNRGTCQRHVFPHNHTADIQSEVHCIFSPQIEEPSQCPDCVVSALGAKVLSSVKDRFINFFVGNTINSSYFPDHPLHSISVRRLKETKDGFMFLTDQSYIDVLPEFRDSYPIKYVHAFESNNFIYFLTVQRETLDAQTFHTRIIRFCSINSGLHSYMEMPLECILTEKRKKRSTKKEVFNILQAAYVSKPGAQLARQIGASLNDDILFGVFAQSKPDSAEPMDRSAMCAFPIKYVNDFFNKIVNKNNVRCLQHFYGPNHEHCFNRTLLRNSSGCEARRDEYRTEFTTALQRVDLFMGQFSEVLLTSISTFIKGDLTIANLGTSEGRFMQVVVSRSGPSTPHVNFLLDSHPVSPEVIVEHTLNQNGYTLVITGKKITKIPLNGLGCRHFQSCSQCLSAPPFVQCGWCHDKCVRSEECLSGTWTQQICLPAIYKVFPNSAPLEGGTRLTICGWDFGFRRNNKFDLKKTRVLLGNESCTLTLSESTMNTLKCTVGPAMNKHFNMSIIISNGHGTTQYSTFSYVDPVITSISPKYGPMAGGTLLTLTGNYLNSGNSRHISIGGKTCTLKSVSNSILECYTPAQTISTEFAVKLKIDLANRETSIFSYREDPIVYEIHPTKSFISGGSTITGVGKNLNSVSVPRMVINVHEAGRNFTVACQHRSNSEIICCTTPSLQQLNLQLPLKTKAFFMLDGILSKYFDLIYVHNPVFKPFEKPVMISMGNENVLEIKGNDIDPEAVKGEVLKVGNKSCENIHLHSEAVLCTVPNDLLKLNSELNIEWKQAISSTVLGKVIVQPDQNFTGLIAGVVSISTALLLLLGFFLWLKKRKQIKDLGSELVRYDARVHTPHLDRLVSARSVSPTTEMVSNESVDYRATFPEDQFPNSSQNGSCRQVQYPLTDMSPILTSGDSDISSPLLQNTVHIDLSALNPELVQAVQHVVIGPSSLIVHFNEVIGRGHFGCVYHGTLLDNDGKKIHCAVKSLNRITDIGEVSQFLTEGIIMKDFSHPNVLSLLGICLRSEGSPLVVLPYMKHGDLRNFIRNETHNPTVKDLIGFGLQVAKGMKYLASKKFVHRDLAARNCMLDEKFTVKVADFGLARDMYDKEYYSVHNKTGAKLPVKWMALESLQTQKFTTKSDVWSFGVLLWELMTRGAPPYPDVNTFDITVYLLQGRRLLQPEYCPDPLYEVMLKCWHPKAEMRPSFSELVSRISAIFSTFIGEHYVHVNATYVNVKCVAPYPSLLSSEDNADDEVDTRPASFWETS

B1: L1-AzF-aMD4dY-PA22 PEG-modified using m-dPEG24-DBCO (peptide)
chain: AETCRQFNRRTHEVWNLDCGAAPAAPAPAAPA[Phe(4-N3)](m‑dPEG24‑DBCO)APAPAAPAAPGCRQFNRRTHEVWNLDC
modifications: cysteine pairing not given here
reporter activity (SRE reporter, firefly/Renilla luciferase, HEK293 cells, relative to Mock); PEG+ sample, 2500-fold diluted (Met): > 10 times that of Mock

B2: L1-AzF-EPO-PA22 PEG-modified using m-dPEG24-DBCO (peptide)
chain: AETGGLYACHMGPMTWVCQPLRGAAPAAPAPAAPA[Phe(4-N3)](m‑dPEG24‑DBCO)APAPAAPAAPGGLYACHMGPMTWVCQPLRG
reporter activity (PathHunter eXpress EpoR-JAK2 Functional Assay, chemiluminescence relative to Mock); PEG+ sample, 1000-fold diluted (EPOR): > 1.5 times that of Mock

B3: WT-EPO-PA22 (peptide)
chain: AETGGLYACHMGPMTWVCQPLRGAAPAAPAPAAPAAPAPAAPAAPGGLYACHMGPMTWVCQPLRG
reporter activity (PathHunter eXpress EpoR-JAK2 Functional Assay, chemiluminescence relative to Mock); PEG+ sample (WT treated with m-dPEG24-DBCO, not modified), 1000-fold diluted (EPOR): > 1.5 times that of Mock
reporter activity (PathHunter eXpress EpoR-JAK2 Functional Assay, chemiluminescence relative to Mock); PEG- sample, 1000-fold diluted (EPOR): > 1.5 times that of Mock

B4: N-AzF-aMD4dY-PA22 PEG-modified using m-dPEG24-DBCO (peptide)
chain: AET[Phe(4-N3)](m‑dPEG24‑DBCO)CRQFNRRTHEVWNLDCGAAPAAPAPAAPAAPAPAAPAAPGCRQFNRRTHEVWNLDC
modifications: cysteine pairing not given here
reporter activity (SRE reporter, firefly/Renilla luciferase, HEK293 cells, relative to Mock); PEG+ sample, 2500-fold diluted (Met): > 10 times that of Mock

B5: L1-AzF-EPO-PA22 (peptide)
chain: AETGGLYACHMGPMTWVCQPLRGAAPAAPAPAAPA[Phe(4-N3)]APAPAAPAAPGGLYACHMGPMTWVCQPLRG
reporter activity (PathHunter eXpress EpoR-JAK2 Functional Assay, chemiluminescence relative to Mock); PEG- sample, 1000-fold diluted (EPOR): > 1.5 times that of Mock

B6: L2-AzF-aMD4dY-PA22 PEG-modified using m-dPEG24-DBCO (peptide)
chain: AETCRQFNRRTHEVWNLDCGAAPAAPAPAA[Phe(4-N3)](m‑dPEG24‑DBCO)AAPAPAAPAAPGCRQFNRRTHEVWNLDC
modifications: cysteine pairing not given here
reporter activity (SRE reporter, firefly/Renilla luciferase, HEK293 cells, relative to Mock); PEG+ sample, 2500-fold diluted (Met): > 10 times that of Mock

B7: N-AzF-aMD4dY-PA22 (peptide)
chain: AET[Phe(4-N3)]CRQFNRRTHEVWNLDCGAAPAAPAPAAPAAPAPAAPAAPGCRQFNRRTHEVWNLDC
modifications: cysteine pairing not given here
reporter activity (SRE reporter, firefly/Renilla luciferase, HEK293 cells, relative to Mock); PEG- sample, 2500-fold diluted (Met): > 10 times that of Mock

B8: N-AzF-EPO-PA22 (peptide)
chain: AET[Phe(4-N3)]GGLYACHMGPMTWVCQPLRGAAPAAPAPAAPAAPAPAAPAAPGGLYACHMGPMTWVCQPLRG
reporter activity (PathHunter eXpress EpoR-JAK2 Functional Assay, chemiluminescence relative to Mock); PEG- sample, 1000-fold diluted (EPOR): > 1.5 times that of Mock

B9: WT-aMD4dY-PA22 (peptide)
chain: AETCRQFNRRTHEVWNLDCGAAPAAPAPAAPAAPAPAAPAAPGCRQFNRRTHEVWNLDC
reporter activity (SRE reporter, firefly/Renilla luciferase, HEK293 cells, relative to Mock); PEG+ sample (WT treated with m-dPEG24-DBCO, not modified), 2500-fold diluted (Met): > 10 times that of Mock
reporter activity (SRE reporter, firefly/Renilla luciferase, HEK293 cells, relative to Mock); PEG- sample, 2500-fold diluted (Met): > 10 times that of Mock

B10: L1-AzF-aMD4dY-PA22 (peptide)
chain: AETCRQFNRRTHEVWNLDCGAAPAAPAPAAPA[Phe(4-N3)]APAPAAPAAPGCRQFNRRTHEVWNLDC
modifications: cysteine pairing not given here
reporter activity (SRE reporter, firefly/Renilla luciferase, HEK293 cells, relative to Mock); PEG- sample, 2500-fold diluted (Met): > 10 times that of Mock

B11: L2-AzF-EPO-PA22 (peptide)
chain: AETGGLYACHMGPMTWVCQPLRGAAPAAPAPAA[Phe(4-N3)]AAPAPAAPAAPGGLYACHMGPMTWVCQPLRG
reporter activity (PathHunter eXpress EpoR-JAK2 Functional Assay, chemiluminescence relative to Mock); PEG- sample, 1000-fold diluted (EPOR): > 1.5 times that of Mock

B12: L2-AzF-EPO-PA22 PEG-modified using m-dPEG24-DBCO (peptide)
chain: AETGGLYACHMGPMTWVCQPLRGAAPAAPAPAA[Phe(4-N3)](m‑dPEG24‑DBCO)AAPAPAAPAAPGGLYACHMGPMTWVCQPLRG
reporter activity (PathHunter eXpress EpoR-JAK2 Functional Assay, chemiluminescence relative to Mock); PEG+ sample, 1000-fold diluted (EPOR): > 1.5 times that of Mock

B13: L2-AzF-aMD4dY-PA22 (peptide)
chain: AETCRQFNRRTHEVWNLDCGAAPAAPAPAA[Phe(4-N3)]AAPAPAAPAAPGCRQFNRRTHEVWNLDC
modifications: cysteine pairing not given here
reporter activity (SRE reporter, firefly/Renilla luciferase, HEK293 cells, relative to Mock); PEG- sample, 2500-fold diluted (Met): > 10 times that of Mock

B14: N-AzF-EPO-PA22 PEG-modified using m-dPEG24-DBCO (peptide)
chain: AET[Phe(4-N3)](m‑dPEG24‑DBCO)GGLYACHMGPMTWVCQPLRGAAPAAPAPAAPAAPAPAAPAAPGGLYACHMGPMTWVCQPLRG
reporter activity (PathHunter eXpress EpoR-JAK2 Functional Assay, chemiluminescence relative to Mock); PEG+ sample, 1000-fold diluted (EPOR): > 1.5 times that of Mock
